Key:
[1] = biological target: P185 BCR-Abl
[2] = biological target: c-Abl K290R
[3] = biological target: c-Abl wild type, full length

relative transforming activity, colonies in soft agar of Rat1/P185 BCR-Abl cells [1] [%]	No. of Agar Colonies (per 10^4 cells) (agar colonies per 10^4 cells) [2]	No. of Agar Colonies (per 10^4 cells) (agar colonies per 10^4 cells) [3]	Substance
70	–	–	HA-tagged Abi-2Δ1-100 (pCGN/abi-2Δ1-100)
–	3	563	HA-tagged Abi-2Δ1-157 (pCGN/abi-2Δ1-157)
